Test results taken from PMC9759335.
Read-outs that look alike come from different tables or passages of the source.

Columns and labels:
[1] = aggregate area of transfected HeLa cells; settings: glycan lost; control: P0wt-EGFP
[2] = EGFP fluorescence in transfected HeLa cells; settings: glycan lost; control: P0wt-EGFP
HeLa adhesion assay = settings: glycan changed form; control: untreated P0D61N cells
[3] = confocal EGFP imaging of HeLa cells; settings: glycan changed form; control: untreated cells, same construct

## P0 D118N (Myelin Protein Zero mutant): D118N
N-glycosylation at N118
  localisation_or_trafficking: no change

## P0 D109N (Myelin Protein Zero mutant): D109N
N-glycosylation at N109
  localisation_or_trafficking: decreases

## P0 D61N (Myelin Protein Zero mutant): 750 μM N-butyl-deoxynojirimycin (NB-DNJ) on HeLa cells expressing D61N
N-glycosylation at N61
  localisation_or_trafficking: increases

## P0 D61N (mouse Mpz knock-in mutant): D61N (MpzD61N/− mice)
N-glycosylation at N61
  localisation_or_trafficking: changes

## P0 D61N (mouse Mpz knock-in mutant): D61N (MpzD61N/+ mice)
N-glycosylation at N61
  expression_or_secretion: no change

## P0 K138N (Myelin Protein Zero mutant): K138N
N-glycosylation at N138
  localisation_or_trafficking: decreases

## P0 D61N (Myelin Protein Zero mutant): D61N
N-glycosylation at N61
  localisation_or_trafficking: decreases

B1: P0 (Myelin Protein Zero): N122S (protein)
parent chain: MAPGAPSSSPSPILAVLLFSSLVLSPAQAIVVYTDREVHGAVGSRVTLHCSFWSSEWVSDDISFTWRYQPEGGRDAISIFHYAKGQPYIDEVGTFKERIQWVGDPRWKDGSIVIHNLDYSDNGTFTCDVKNPPDIVGKTSQVTLYVFEKVPTRYGVVLGAVIGGVLGVVLLLLLLFYVVRYCWLRRQAALQRRLSAMEKGKLHKPGKDASKRGRQTPVLYAMLDHSRSTKAVSEKKAKGLGESRKDKK
[1]
  other: homophilic cell adhesion, percent_of_wt: no change
[2]
  localisation_or_trafficking: no change

B2: P0 (Myelin Protein Zero): 750 μM NB-DNJ on P0D61N (protein)
parent chain: MAPGAPSSSPSPILAVLLFSSLVLSPAQAIVVYTDREVHGAVGSRVTLHCSFWSSEWVSDDISFTWRYQPEGGRDAISIFHYAKGQPYIDEVGTFKERIQWVGDPRWKDGSIVIHNLDYSDNGTFTCDVKNPPDIVGKTSQVTLYVFEKVPTRYGVVLGAVIGGVLGVVLLLLLLFYVVRYCWLRRQAALQRRLSAMEKGKLHKPGKDASKRGRQTPVLYAMLDHSRSTKAVSEKKAKGLGESRKDKK
HeLa adhesion assay
  other: homophilic cell adhesion: increases

B3: P0 (Myelin Protein Zero): T124M (protein)
parent chain: MAPGAPSSSPSPILAVLLFSSLVLSPAQAIVVYTDREVHGAVGSRVTLHCSFWSSEWVSDDISFTWRYQPEGGRDAISIFHYAKGQPYIDEVGTFKERIQWVGDPRWKDGSIVIHNLDYSDNGTFTCDVKNPPDIVGKTSQVTLYVFEKVPTRYGVVLGAVIGGVLGVVLLLLLLFYVVRYCWLRRQAALQRRLSAMEKGKLHKPGKDASKRGRQTPVLYAMLDHSRSTKAVSEKKAKGLGESRKDKK
[1]
  other: homophilic cell adhesion, percent_of_wt: no change
[2]
  localisation_or_trafficking: no change

B4: P0 (Myelin Protein Zero): T124K (protein)
parent chain: MAPGAPSSSPSPILAVLLFSSLVLSPAQAIVVYTDREVHGAVGSRVTLHCSFWSSEWVSDDISFTWRYQPEGGRDAISIFHYAKGQPYIDEVGTFKERIQWVGDPRWKDGSIVIHNLDYSDNGTFTCDVKNPPDIVGKTSQVTLYVFEKVPTRYGVVLGAVIGGVLGVVLLLLLLFYVVRYCWLRRQAALQRRLSAMEKGKLHKPGKDASKRGRQTPVLYAMLDHSRSTKAVSEKKAKGLGESRKDKK
[2]
  localisation_or_trafficking: no change

B5: P0 (Myelin Protein Zero): 750 μM NB-DNJ on P0wt (protein)
parent chain: MAPGAPSSSPSPILAVLLFSSLVLSPAQAIVVYTDREVHGAVGSRVTLHCSFWSSEWVSDDISFTWRYQPEGGRDAISIFHYAKGQPYIDEVGTFKERIQWVGDPRWKDGSIVIHNLDYSDNGTFTCDVKNPPDIVGKTSQVTLYVFEKVPTRYGVVLGAVIGGVLGVVLLLLLLFYVVRYCWLRRQAALQRRLSAMEKGKLHKPGKDASKRGRQTPVLYAMLDHSRSTKAVSEKKAKGLGESRKDKK
[3]
  localisation_or_trafficking: no change

B6: P0 (Myelin Protein Zero): T124A (protein)
parent chain: MAPGAPSSSPSPILAVLLFSSLVLSPAQAIVVYTDREVHGAVGSRVTLHCSFWSSEWVSDDISFTWRYQPEGGRDAISIFHYAKGQPYIDEVGTFKERIQWVGDPRWKDGSIVIHNLDYSDNGTFTCDVKNPPDIVGKTSQVTLYVFEKVPTRYGVVLGAVIGGVLGVVLLLLLLFYVVRYCWLRRQAALQRRLSAMEKGKLHKPGKDASKRGRQTPVLYAMLDHSRSTKAVSEKKAKGLGESRKDKK
[1]
  other: homophilic cell adhesion, percent_of_wt: no change
[2]
  localisation_or_trafficking: no change
